Substitutions are numbered along the chain they refer to. Names and notes keep the numbering of the source.
B1: 2544 Fab κC:P94T (protein)
chain 1: EVQLVESGGGLVQPGGSLRLSCVASGFTFSNYNMNWVRQAPGKGLEWLSYISSSSGTIYYADSVKGRFTISRDNAKNSMYLQMNSLRAEDTAVYYCVRVEYYYGSSGYYYDFDSWGQGTLVTVSS
chain 2: DIVMTQSPLSLPVTPGEPASISCRSSQSLLHNGYNYLDWYLQKPGQSPQLLIYLGSNRASGVPDRFSGSGSGTDFTLKISRVEAEDVGVYYCMQTLQTFTFGQGTRLEIK
B2: 2544 Fab HC:G55S (protein)
chain 1: B1 chain 1 with G56S
chain 2: B1 chain 2 with T98P
B3: 2544 Fab κC:F95P (protein)
chain 1: B1 chain 1
chain 2: B1 chain 2 with T98P, F99P
B4: 2544 Fab HC:D100GY (protein)
chain 1: B1 chain 1 with D111Y
chain 2: B1 chain 2 with T98P
B5: 2544 Fab κC:T91A (protein)
chain 1: B1 chain 1
chain 2: B1 chain 2 with T95A, T98P

Target: Recombinant His-tagged Pfs25, P13829
Test: BLI
Conditions: chain shown with the change; immobilized Pfs25 and mutant Fab analyte; parent: est. 4.6; read off a plot

Row | Binder | Kd [nM]
1 | B1 | 14
2 | B2 | 14
3 | B3 | 22000
4 | B4 | 18
5 | B5 | 12
